Assay results: patent US20240293573A1 (SEOUL NATIONAL UNIVERSITY R AND DB FOUNDATION, published 2024)

Target: T1, Claudin3 (Homo sapiens (Human), UniProt O15551 1-220)
T1 construct: also called CLDN3
T1 sequence: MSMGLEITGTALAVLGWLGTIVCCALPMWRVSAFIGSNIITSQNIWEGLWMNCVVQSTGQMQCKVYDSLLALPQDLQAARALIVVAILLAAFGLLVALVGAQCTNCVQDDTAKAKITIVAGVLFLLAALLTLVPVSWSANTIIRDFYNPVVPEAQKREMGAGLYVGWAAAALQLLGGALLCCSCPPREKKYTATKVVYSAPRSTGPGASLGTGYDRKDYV
Test: fluorescence of FITC-labeled h4G3cys on CLDN3/TOV-112D cells, one-to-one two-state model

Kd: 5.24 nM
B1: cysteine-substituted anti-Claudin3 human monoclonal antibody h4G3cys (light chain Q125C) (antibody, human IgG1, kappa, V domains shown)
VH: EVQLLESGGGLVQPGGSLRLSCAASGFTFSSYAMSWVRQAPGKGLEWVSIINPSGASTSHAQRFQGRFTISRDNSKNTLYLQMNSLRAEDTAVYYCARYGRYGSFDIWGQGTLVTVSS
VL: QSVLTQPPSASGTPGQRVTISCSGSTSNIGRNYVSWYQQLPGTAPKLLIYDTSNKHFGVPDRFSGSKSGTSASLAISGLRSEDEADYYCQSYDSSKVVFGGGTKLTVLR
notes: also called modified anti-Claudin3 antibody; anti-Claudin3 antibody variant
